From patent US20080027145A1, “Therapeutic Molecules and Methods for Generating and/or Selecting Same” (priority 2004, published 2008)

B1: Noxa: full-length BH3-only protein Noxa expressed in cells (mouse Noxa bearing two BH3s in co-immunoprecipitation) (protein, UniProt Q9JM54 1-103, looked up)
chain: MPGRKARRNAPVNPTRAELPPEFAAQLRKIGDKVYCTWSAPDITVVLAQMPGKSQKSRMRSPSPTRVPADLKDECAQLRRIGDKVNLRQKLLNLISKLFNLVT
modifications: full-length
B2: Bad: full-length mouse BH3-only protein Bad expressed in cells, recombinant in GST pull-down (protein, UniProt Q61337 1-204, looked up)
chain: MGTPKQPSLAPAHALGLRKSDPGIRSLGSDAGGRRWRPAAQSMFQIPEFEPSEQEDASATDRGLGPSLTEDQPGPYLAPGLLGSNIHQQGRAATNSHHGGAGAMETRSRHSSYPAGTEEDEGMEEELSPFRGRSRSAPPNLWAAQRYGRELRRMSDEFEGSFKGLPRPKSAGTATQMRQSAGWTRIIQSWWDRNLGKGGSTPSQ
modifications: full-length
notes: full-length mouse BH3-only protein Bad expressed in cells, recombinant in GST pull-down
B3: Bik: full-length human BH3-only protein Bik expressed in cells (protein, UniProt Q13323 1-160, looked up)
chain: MSEVRPLSRDILMETLLYEQLLEPPTMEVLGMTDSEEDLDPMEDFDSLECMEGSDALALRLACIGDEMDVSLRAPRLAQLSEVAMHSLGLAFIYDQTEDIRDVLRSFMDGFTTLKENIMRFWRSPNPGSWVSCEQVLLALLLLLALLLPLLSGGLHLLLK
modifications: full-length
B4: Bmf: BH3-only protein Bmf, expressed from retrovirus in MEFs, recombinant in GST pull-down (protein, UniProt Q91ZE9 1-185, looked up)
Bcl-2-modifying factor: MEPPQCVEELEDDVFQSEDGEPGTQPGGLLSADLFAQSQLDCPLSRLQLFPLTHCCGPGLRPISQEDKATQTLSPASPSQGVMLPCGVTEEPQRLFYGNAGYRLPLPASFPAGSPLGEQPPEGQFLQHRAEVQIARKLQCIADQFHRLHTQQHQQNRDRAWWQVFLFLQNLALNRQENREGVGPW

Columns and labels:
Bcl-xL ΔC24 = target: T1, Bcl-xL ΔC24 (Homo sapiens, UniProt Q07817); assay: Bcl-xL ΔC24
T1 construct: Human Bcl-xL (Acc. no. NP_612815; residues 1-209); GST (N, cleaved yes); made in house
T1 sequence (Q07817 1-209, stated change not applied): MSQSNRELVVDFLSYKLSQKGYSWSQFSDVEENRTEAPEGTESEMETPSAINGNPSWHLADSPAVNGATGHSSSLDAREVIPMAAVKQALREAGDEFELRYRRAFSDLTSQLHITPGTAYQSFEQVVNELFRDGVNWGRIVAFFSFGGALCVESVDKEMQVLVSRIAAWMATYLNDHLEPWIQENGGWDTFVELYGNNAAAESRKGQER
Description: (§1) Table printed on a drawing sheet, FIGURE 2A
Head of the field: Bcl-xL ΔC24
(§2) The patent's description of the figure: FIG. 2 is a graphical representation showing pro-apoptotic BH3-only and pro-survival Bcl-2-like proteins have distinctive interactions. (A) Using competitive binding assays, the IC50 (nM) for the indicated interactions were determined. The results shown are from representative experiments; the variation observed in multiple experiments was less than two-fold (using different chips or protein batches). (B) Relative binding affinities of interactions (tabulated in A) were inversely plotted. The BH3 binding profiles of pro-survival proteins are shown. In (C), the sequences of human Bcl-2 (residues 93-202), human Bcl-xL (86-195), human Bcl-w (42-151), mouse Mcl-1 (190-300) and mouse A1 (33-148) that form their BH3 binding grooves (α-helices 2 to 8; Hinds et al., EMBO J 22:1497-1507, 2003) were compared and presented as a phylogenetic tree. Color reproductions are available from the patentees on request.
(§3) First copying reader's note: The table itself prints no unit; IC50 (nM) is printed only on the axis of panel B of the same figure, which plots the same values.
Where the first naming reader finds the target: head: Bcl-xL ΔC24

A1 ΔC20 = target: T2, A1 ΔC20 (Mus musculus, UniProt Q07440); assay: A1 ΔC20
T2 construct: mouse A1 (Acc. no. NP_033872; residues 1-152); GST (N, cleaved yes); made in house
T2 sequence (Q07440 1-152, stated change not applied): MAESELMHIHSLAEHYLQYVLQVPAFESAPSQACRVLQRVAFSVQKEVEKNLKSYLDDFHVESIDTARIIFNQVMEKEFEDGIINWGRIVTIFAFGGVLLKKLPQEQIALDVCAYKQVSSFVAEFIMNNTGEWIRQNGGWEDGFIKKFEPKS
Description: as §1
Head of the field: A1 ΔC20
as §2, §3
Where the first naming reader finds the target: head: A1 ΔC20

Bcl-2 ΔC22 = target: T3, Bcl-2 ΔC22 (Homo sapiens, UniProt P10415); assay: Bcl-2 ΔC22
T3 construct: Human Bcl-2 (Acc. no. NP_000624; residues 1-217); made in house
T3 sequence (P10415 1-217, stated change not applied): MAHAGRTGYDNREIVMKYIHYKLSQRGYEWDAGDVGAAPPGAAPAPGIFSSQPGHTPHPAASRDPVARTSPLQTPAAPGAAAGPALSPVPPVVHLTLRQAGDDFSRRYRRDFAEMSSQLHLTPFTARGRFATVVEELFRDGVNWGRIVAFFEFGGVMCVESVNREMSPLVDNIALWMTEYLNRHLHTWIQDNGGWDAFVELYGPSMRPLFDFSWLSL
Description: as §1
Head of the field: Bcl-2 ΔC22
as §2, with “In (C), the sequences of human Bcl-2 (residues 93-202), human Bcl-xL (86-195), human Bcl-w (42-151), mouse Mcl-1 (190-300) and mouse A1 (33-148) that form their BH3 binding grooves (α-helices 2 to 8; Hinds et al., EMBO J 22:1497-1507, 2003) were compared and presented as a phylogenetic tree.” left out
as §3
Where the first naming reader finds the target: head: Bcl-2 ΔC22

FLAG-tagged Bcl-xL = target: T4, FLAG-tagged Bcl-xL (Homo sapiens, UniProt Q07817); assay: Co-immunoprecipitation in transfected 293T cells; type: binding; conditions: tagged full-length proteins
T4 construct: expressed in transfected cells; host or cells: HEK293T
T4 sequence (Q07817 whole entry): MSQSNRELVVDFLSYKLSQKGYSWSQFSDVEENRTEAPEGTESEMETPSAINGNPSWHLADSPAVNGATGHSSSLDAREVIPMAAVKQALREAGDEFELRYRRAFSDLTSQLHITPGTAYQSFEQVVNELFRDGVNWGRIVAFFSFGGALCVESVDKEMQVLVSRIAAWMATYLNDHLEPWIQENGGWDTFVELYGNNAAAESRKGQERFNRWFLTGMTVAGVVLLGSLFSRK
From the text: (§4) Equivalent ^35S-labeled lysates harvested from 293T cells were immunoprecipitated with antibodies to the HA, FLAG (FL) or control (C) tags.
(§5) The maintenance, transfection and metabolic labeling of the human embryonic kidney (HEK) 293T cells with ^35S-methionine/cysteine (NEN) as well as co-immunoprecipitation have been described (Huang et al., Supra; Moriishi et al., Proc Natl Acad Sci USA 96:9683-9688, 1999; O'Conner et al., Supra). Briefly, equivalent TCA-precipitable lysates were immunoprecipiated using the mouse monoclonal antibodies to HA (HA.11; CRP), FLAG (M2; Sigma) and control Glu-Glu (CRP) tags. The proteins were resolved by SDS:PAGE, transferred onto nitrocellulose membranes and detected by fluorography (Amplify; Amersham Biosciences).
(§6) To verify the in vitro findings, interactions of selected pairs of the full-length N-terminally tagged proteins were investigated in mammalian cells by co-immunoprecipitation. […] The cells were metabolically labeled with ^35S-methionine/cysteine to permit semi-quantitative assessment of any interaction between co-associating radiolabeled proteins.
(§7) To verify the in vitro findings, selected pairs of the full-length N-terminally tagged proteins associated in mammalian cells were investigated by co-immunoprecipitation. […] The cells were metabolically labeled with ^35S-methionine/cysteine to permit semi-quantitative assessment of any interaction between the labeled proteins or interaction was gauged by the more sensitive western blotting.

FLAG-tagged Mcl-1 = target: T5, FLAG-tagged Mcl-1 (Mus musculus, UniProt P97287); assay: Co-immunoprecipitation in transfected 293T cells; type: binding; conditions: tagged full-length proteins
T5 construct: expressed in transfected cells; host or cells: HEK293T
T5 sequence (P97287 whole entry): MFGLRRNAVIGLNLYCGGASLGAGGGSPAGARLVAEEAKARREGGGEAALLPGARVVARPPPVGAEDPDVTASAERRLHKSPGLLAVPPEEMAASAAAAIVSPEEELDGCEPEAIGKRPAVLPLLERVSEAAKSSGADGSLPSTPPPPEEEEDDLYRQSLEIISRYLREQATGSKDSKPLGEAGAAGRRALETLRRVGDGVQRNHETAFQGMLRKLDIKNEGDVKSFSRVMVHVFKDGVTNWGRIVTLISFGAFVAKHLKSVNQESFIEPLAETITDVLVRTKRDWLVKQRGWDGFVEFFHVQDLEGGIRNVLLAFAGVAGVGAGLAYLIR
From the text: as §4, §5, §6, §7

Bcl-w ΔC29 = target: T6, Bcl-w ΔC29 (Homo sapiens, UniProt Q92843, A128E/C29S); assay: Bcl-w ΔC29
T6 construct: human Bcl-w (Acc. no. NP_004041; residues 1-164; C29S A128E); made in house
T6 sequence (Q92843 1-164 C29S/A128E): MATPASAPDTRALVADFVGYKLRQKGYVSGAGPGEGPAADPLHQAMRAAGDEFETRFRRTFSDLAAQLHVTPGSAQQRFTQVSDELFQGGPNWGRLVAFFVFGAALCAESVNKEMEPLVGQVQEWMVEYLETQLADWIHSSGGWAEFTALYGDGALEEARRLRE
Description: as §1, §2, §3

[1] = tested on: mouse embryonic fibroblasts (MEFs); assay: Killing of MEFs after retroviral expression, viability 24 hours after infection; type: cell-based; conditions: for killing of MEFs on co-expression with the NoxaBH3: co-expressed with GFP-Bims NoxaBH3, 24 hours; for killing of MEFs: retroviral expression, 24 hours after infection
Description: FIG. 7 is a graphical representation showing that BH3-only proteins that bind selective targets have weak killing activity. (A) The affinities of BH3-only peptides for pro-survival proteins (tabulated in FIG. 3A) were inversely plotted to facilitate comparison of the patterns of BH3 binding. […] Immortalized 3T9 MEFs were infected with retroviruses expressing only GFP (control), or one of the BH3-only proteins and GFP. The viability of the infected (GFP^+ve) cells was determined by PI exclusion 24 hours after infection. The histograms represent means±1SD of at least 3 experiments. […] The filter was probed with a rat monoclonal anti-FLAG antibody. *Degradation product of Mcl-1. […] Viability of MEFs infected with retroviruses encoding the indicated proteins (GFP^+ve) was analyzed 24 hours after infection. The histograms represent means±1SD of at least 3 experiments. (E) Long-term survival of MEFs infected with BH3 expressing retroviruses. One hundred retrovirally-infected cells were plated and the absolute number of GFP^+ve colonies formed after 6 days scored. […] The data represent the average number of GFP^+ve colonies formed±1SD from at least 3 experiments. To assess the biological relevance of the selective binding, retroviral delivery was used to compare the ability of different BH3-only proteins to kill wild-type mouse embryonic fibroblasts (MEFs). To monitor expression of the introduced gene, a vector (pMIG) in which its expression is coupled via an internal ribosomal entry site (IRES) to that of green fluorescent protein (GFP) was used (Van Parijs et al., Immunity 11:281-288, 1999). The cells were efficiently infected (>90%) and the introduced BH3-only proteins were comparably expressed. Viability of the infected (GFP^+ve) cells was scored 24 hours after infection (FIGS. 7A, 7B) and in long-term colony assays (FIG. 7E). […] Thus, the neutralization of Mcl-1 by Noxa should be complemented by co-expression of a BadBH3 to neutralize Bcl-2 and Bcl-xL in MEFs (FIG. 8A).

[2] = tested on: mouse embryonic fibroblasts (MEFs); assay: Long-term colony assay of retrovirally infected MEFs; type: cell-based; conditions: colonies after 6 days
Description: FIG. 7 is a graphical representation showing that BH3-only proteins that bind selective targets have weak killing activity. (A) The affinities of BH3-only peptides for pro-survival proteins (tabulated in FIG. 3A) were inversely plotted to facilitate comparison of the patterns of BH3 binding. […] Immortalized 3T9 MEFs were infected with retroviruses expressing only GFP (control), or one of the BH3-only proteins and GFP. The viability of the infected (GFP^+ve) cells was determined by PI exclusion 24 hours after infection. The histograms represent means±1SD of at least 3 experiments. […] The filter was probed with a rat monoclonal anti-FLAG antibody. *Degradation product of Mcl-1. […] Viability of MEFs infected with retroviruses encoding the indicated proteins (GFP^+ve) was analyzed 24 hours after infection. The histograms represent means±1SD of at least 3 experiments. (E) Long-term survival of MEFs infected with BH3 expressing retroviruses. One hundred retrovirally-infected cells were plated and the absolute number of GFP^+ve colonies formed after 6 days scored. […] The data represent the average number of GFP^+ve colonies formed±1SD from at least 3 experiments. […] Viability of the infected (GFP^+ve) cells was scored 24 hours after infection (FIGS. 7A, 7B) and in long-term colony assays (FIG. 7E).

FLAG-tagged Bcl-2 = target: T7, FLAG-tagged Bcl-2 (Homo sapiens, UniProt P10415); assay: Co-immunoprecipitation in transfected 293T cells; type: binding; conditions: tagged full-length proteins
T7 construct: expressed in transfected cells; host or cells: HEK293T
T7 sequence (P10415 whole entry): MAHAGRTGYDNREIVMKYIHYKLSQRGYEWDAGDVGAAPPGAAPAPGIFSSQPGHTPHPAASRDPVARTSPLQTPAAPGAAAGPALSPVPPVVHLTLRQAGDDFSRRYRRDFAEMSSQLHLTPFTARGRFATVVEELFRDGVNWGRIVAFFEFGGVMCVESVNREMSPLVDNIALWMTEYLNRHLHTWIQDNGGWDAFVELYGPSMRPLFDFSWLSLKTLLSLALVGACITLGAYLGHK
From the text: as §4, §5, §6, §7

GST Mcl-1 = GST Mcl-1 (Mus musculus, UniProt P97287); assay: GST pull-down with recombinant BH3-only proteins; type: binding
Chain of GST Mcl-1 (P97287 whole entry): as the sequence (P97287 whole entry) above

Mcl-1 ΔN151 ΔC23 = target: T8, Mcl-1 ΔN151 ΔC23 (Mus musculus, UniProt P97287); assay: Mcl-1 ΔN151 ΔC23
T8 construct: mouse Mcl-1 (Acc. no. NP_031588; residues 152-308); GST (N, cleaved yes); made in house
T8 sequence (P97287 152-308, stated change not applied): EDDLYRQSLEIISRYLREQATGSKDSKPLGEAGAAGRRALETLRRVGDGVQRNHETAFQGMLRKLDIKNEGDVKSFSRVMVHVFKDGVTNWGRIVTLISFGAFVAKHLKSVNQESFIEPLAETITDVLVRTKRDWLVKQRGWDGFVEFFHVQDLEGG
Description: as §1
Head of the field: Mcl-1 ΔN151 ΔC23
as §2, §3
Where the first naming reader finds the target: head: Mcl-1 ΔN151 ΔC23

Molecule	IC50 (Bcl-xL ΔC24) [nM]	IC50 (A1 ΔC20) [nM]	IC50 (Bcl-2 ΔC22) [nM]	interaction with Bcl-xL by co-immunoprecipitation (FLAG-tagged Bcl-xL)	interaction with Mcl-1 by co-immunoprecipitation (FLAG-tagged Mcl-1)	IC50 (Bcl-w ΔC29) [nM]	killing of MEFs on co-expression with the BadBH3 ([1]; co-expressed with GFP-Bims BadBH3, 24 hours)	killing of MEFs on co-expression with the NoxaBH3 [1]	killing of MEFs [1]	long-term survival, GFP+ve colonies [2]	interaction with Bcl-2 by co-immunoprecipitation (FLAG-tagged Bcl-2)	binding of GST Mcl-1 (GST Mcl-1)	IC50 (Mcl-1 ΔN151 ΔC23) [nM]
B1	> 100000	180	> 100000	did not	interacted only with Mcl-1	> 100000	as much cell death as expression of Bims alone	did not augment	much less potent killers	modest effects	–	–	–
B2	5.3	15000	16	bound well	not appreciably	30	–	–	much less potent killers	–	bound well	not	> 100000
B3	–	58	–	to a greater extent than Bcl-2 or Mcl-1	–	–	–	potently enhanced	much less potent killers	modest effects	–	–	–
B4	–	1800	–	–	–	–	–	–	much less potent killers	–	–	weakly	1100
